# Where a chain is given by its changes, count along the chain named.
# B1: monoclonal antibody 9A4 A7 D3 (hybridoma CNCM I-4333) (antibody, V domains shown)
# VH: EVQLQESGAELVRPGTSVKISCKASGYTFTNYWLGWVKQRPGHGLEWIGDIYPGGGYTNYNEKFKGKATLTADTSSSTAYMQLSSLTSEDSAVYFCARTPLYGSSYGGFAYWGQGTLVTVSA
# VL: KTQTTSSLSASLGDRVTISCSASQGISNYLNWYQQKPDGTVKLLIYYTSSLHSGVPSRFSGSGSGTDYSLTISNLEPEDIATYYCQQYSKLPWTFGGGTKLEIK
# notes: Hybridoma antibody raised against ovine LH; The VL as determined begins KTQTTSS; also called MAb D3; IgM D3
# B2: monoclonal antibody 9A4 D4 B6 (hybridoma CNCM I-4334) (antibody, V domains shown)
# VH: B1 VH with E6Q
# VL: DIVMTQATSSLSASLGDRVTISCSASQGISNYLNWYQQKPDGTVKLLIYYTSSLHSGVPSRFSGSGSGTDYSLTISNLEPEDIATYYCQQYSKLPWTFGGGTKLEIK
# notes: Hybridoma antibody raised against ovine LH; also called MAb B6; IgM B6
# B3: monoclonal antibody 1A6 C4 G11 (hybridoma CNCM I-4332) (antibody, V domains shown)
# VH: B1 VH with Q3K, E6Q
# VL: B2 VL with V3Q, A7T
# notes: Hybridoma antibody raised against ovine LH; also called MAb G11; IgM G11
# Legend:
# [1] = target: T1, ovine luteinizing hormone (ovine, UniProt P01218 25-120; P01231 21-141); assay: cell-based or functional assay
# [2] = target: T2, ovine follicle-stimulating hormone (ovine, UniProt P01218 25-120; P01227 20-129); assay: cell-based or functional assay
# [3] = target: T3, equine choriogonadotropin (eCG) or PMSG (equine, UniProt P01220 25-120; P08751 21-169); assay: ELISA on adsorbed commercial eCG
# T3 construct: They are written as one protein; also called commercial eCG (Synchro Part, CEVA); purified eCG (6000 IU/mg)
# Procedure: (§1) After washing five times, a secondary antibody (peroxidase-coupled mouse anti-IgM, Jackson Laboratories) was incubated for 1 h at 37° C. (100 μl/well). After washing five times, the peroxidase is developed with TMB (100 μl/well), for 30 min at room temperature and then stopped with 1M H₂SO₄ (50 μl/well).
# (§2) In the same way, the antibodies were evaluated on the commercial eCG (Synchro Part, CEVA, Libourne, France) used in treatments for induction of ovulation in sheep and goats. An isotypic control (IgM directed against another type of antigen very remote from the gonadotropic hormones). Each antibody was incubated at a concentration of 10 μg/ml and 1 μg/ml.
# [4] = target: T3, equine choriogonadotropin (eCG) or PMSG; assay: ELISA on commercial eCG, antibody at 1 µg/ml
# Procedure: as §1, §2
# [5] = target: T3, equine choriogonadotropin (eCG) or PMSG; assay: ELISA on commercial eCG, antibody at 10 µg/ml
# Procedure: as §1, §2
# [6] = target: porcine luteinizing hormone (porcine, UniProt P01219 25-120; P01232 21-141); assay: ELISA, hormone adsorbed at 2 µg/ml, anti-IgM peroxidase; relative to oLH
# Procedure: as §1
# [7] = target: bovine luteinizing hormone (bovine, UniProt P01217 25-120; P04651 21-141); assay: as above
# Procedure: as §1
# [8] = target: T4, human chorionic gonadotropin (human, UniProt P01215 25-116; P0DN86 21-165); assay: as above
# T4 construct: Alpha/beta heterodimer; also called hCG
# Procedure: as §1
# [9] = target: porcine follicle-stimulating hormone (porcine, UniProt P01219 25-120; P01228 21-129); assay: ELISA, hormone adsorbed at 2 µg/ml, anti-IgM peroxidase; relative to oFSH
# Procedure: as §1
# [10] = target: bovine follicle-stimulating hormone (bovine, UniProt P01217 25-120; P04837 21-129); assay: as above
# Procedure: as §1
# [11] = target: T5, human follicle-stimulating hormone (human, UniProt P01215 25-116; P01225 19-129); assay: as above
# T5 construct: Alpha/beta heterodimer; also called hFSH; human FSH
# Procedure: as §1
# [12] = target: T1, ovine luteinizing hormone; assay: ELISA, hormone adsorbed at 2 µg/ml, MAb at 0.1-1-10 µg/ml, anti-IgM peroxidase; oLH is the 100% reference
# [13] = target: T2, ovine follicle-stimulating hormone; assay: ELISA, hormone adsorbed at 2 µg/ml, MAb at 0.1-1-10 µg/ml, anti-IgM peroxidase; oFSH is the 100% reference
# [14] = target: T3, equine choriogonadotropin (eCG) or PMSG; assay: ELISA on purified eCG (6000 IU/mg)
# T4 sequence (P01215 25-116, chain 1 of 2, other chains not shown): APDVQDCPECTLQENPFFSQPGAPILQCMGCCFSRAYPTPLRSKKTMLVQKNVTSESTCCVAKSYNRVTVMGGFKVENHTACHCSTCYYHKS
# T5 sequence (P01215 25-116, chain 1 of 2): as the sequence (P01215 25-116, chain 1 of 2, other chains not shown) above
# T5 sequence (P01225 19-129, chain 2 of 2): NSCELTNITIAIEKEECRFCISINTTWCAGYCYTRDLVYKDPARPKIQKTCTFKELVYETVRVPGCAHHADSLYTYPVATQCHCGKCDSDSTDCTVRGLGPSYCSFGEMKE
# T3 sequence (P01220 25-120 limits assumed, chain 1 of 2): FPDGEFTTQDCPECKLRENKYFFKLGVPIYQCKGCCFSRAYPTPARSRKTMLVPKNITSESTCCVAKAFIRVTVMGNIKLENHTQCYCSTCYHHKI
# T3 sequence (P08751 21-169 limits assumed, chain 2 of 2): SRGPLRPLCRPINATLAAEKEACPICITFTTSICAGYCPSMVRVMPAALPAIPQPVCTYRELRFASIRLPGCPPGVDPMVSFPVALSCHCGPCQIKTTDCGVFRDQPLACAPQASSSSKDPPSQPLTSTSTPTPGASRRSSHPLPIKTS
binder,measurement,setting,value
B1,potentiating effect on cAMP secretion (in vitro bioassay),[1],150%
same,potentiating effect on cAMP secretion (in vitro bioassay),[2],150%
same,binding result,[3],no binding (tested: 10 µg/ml and 1 µg/ml)
same,OD,[4],0.102 OD
same,OD,[5],0.091 OD
same,percentage of cross reaction (OD hormone tested / OD ovine hormone x 100),[6],170%
same,percentage of cross reaction (OD hormone tested / OD ovine hormone x 100),[7],121%
same,percentage of cross reaction (OD hormone tested / OD ovine hormone x 100),[8],72%
same,percentage of cross reaction (OD hormone tested / OD ovine hormone x 100),[9],100%
same,percentage of cross reaction (OD hormone tested / OD ovine hormone x 100),[10],460%
same,percentage of cross reaction (OD hormone tested / OD ovine hormone x 100),[11],100%
same,percentage of cross reaction (OD hormone tested / OD ovine hormone x 100),[12],100%
same,percentage of cross reaction (OD hormone tested / OD ovine hormone x 100),[13],100%
B2,potentiating effect on cAMP secretion (in vitro bioassay),[1],150%
same,potentiating effect on cAMP secretion (in vitro bioassay),[2],150%
same,binding result,[3],no binding (tested: 10 µg/ml and 1 µg/ml)
same,OD,[4],0.078 OD
same,OD,[5],0.088 OD
same,percentage of cross reaction (OD hormone tested / OD ovine hormone x 100),[6],168%
same,percentage of cross reaction (OD hormone tested / OD ovine hormone x 100),[7],122%
same,percentage of cross reaction (OD hormone tested / OD ovine hormone x 100),[8],97%
same,percentage of cross reaction (OD hormone tested / OD ovine hormone x 100),[9],137%
same,percentage of cross reaction (OD hormone tested / OD ovine hormone x 100),[10],430%
same,percentage of cross reaction (OD hormone tested / OD ovine hormone x 100),[11],100%
same,percentage of cross reaction (OD hormone tested / OD ovine hormone x 100),[12],100%
same,percentage of cross reaction (OD hormone tested / OD ovine hormone x 100),[13],100%
B3,binding result,[14],no binding
same,OD,[4],0.088 OD
same,OD,[5],0.09 OD
same,percentage of cross reaction (OD hormone tested / OD ovine hormone x 100),[6],140%
same,percentage of cross reaction (OD hormone tested / OD ovine hormone x 100),[7],100%
same,percentage of cross reaction (OD hormone tested / OD ovine hormone x 100),[8],68%
same,percentage of cross reaction (OD hormone tested / OD ovine hormone x 100),[9],230%
same,percentage of cross reaction (OD hormone tested / OD ovine hormone x 100),[10],380%
same,percentage of cross reaction (OD hormone tested / OD ovine hormone x 100),[11],113%
same,percentage of cross reaction (OD hormone tested / OD ovine hormone x 100),[12],100%
same,percentage of cross reaction (OD hormone tested / OD ovine hormone x 100),[13],100%
